Experiment [1] has as its target MCC 88-103 peptide tethered to full-length I-E^k on M12 cells (mouse) (UniProt P04224). The experiment in a line: cell coupling (CATS) with MCC M12 cells, flow cytometry.
For experiment [2], the target named is T102S altered peptide ligand of MCC tethered to full-length I-E^k on M12 cells (mouse) (UniProt P04224). Description: cell coupling (CATS) of transferred 5c.c7 CD4+ T cells with T102S M12 cells, flow cytometry.
For experiment [3], the target named is MCC 88-103 peptide tethered to full-length I-E^k on M12 cells (mouse) (UniProt P04224). Description: cell coupling (CATS) of 5c.c7 CD4+ T cells with MCC M12 cells, Hb M12 as dump, flow cytometry.
Experiment [4] has as its target I-E^k MHCII on tethered pMHC-II expressing M12 cells. Description: cell coupling (CATS) of B10.A CD4+ T cells with pre-blocked pMHC+ M12 cells.
Experiment [5] deals with MCC 88-103 peptide tethered to full-length I-E^k on M12 cells (mouse) (UniProt P04224). Description: cell coupling (CATS) of B10.A CD4+ T cells with M12 cells pre-blocked with 20 µg/mL 14-4-4S; competitor: TCRs of B10.A CD4+ T cells.
Experiment [6] addresses T102S altered peptide ligand of MCC tethered to full-length I-E^k on M12 cells (mouse) (UniProt P04224). Described as above.
Experiment [7] deals with mouse hemoglobin d allele Hb 64-76 peptide tethered to full-length I-E^k on M12 cells (mouse) (UniProt P04224). Described as above.
Experiment [8] has as its target 5c.c7 TCR on CD4+ T cells from 5c.c7 TCR Rag KO mice (mouse). Description: T102S tetramer staining of transferred 5c.c7 CD4+ T cells, flow cytometry.

On to “5c.c7 TCR expressed on 58α^-β^- hybridoma cells (α chain fused C-terminally to mEGFP)”, for which, in experiment [1], the coupling percentage amounted to 30%.

Regarding “5c.c7 TCR on CD4+ T cells from 5c.c7 TCR Rag KO mice”, the percentage of 5c.c7 CD4+ T cells identified in experiment [2] came to 70%. For the same substance, in experiment [3], the coupling percentage lay within 60 to 85%.

In experiment [4], 14-4-4S anti-I-E^k MHCII antibody showed a fold lower relative coupling in blocked state of 3 to 5 fold. Moreover, the fold decrease in coupling when blocked was found to be 4 fold in experiment [5], 3 fold in experiment [6] and 4 fold in experiment [7].

For the substance “T102S:I-E^k tetramer (from UniProt P22629 37-163; P04224 26-216) (peptide-MHC)”, the percentage of 5c.c7 CD4+ T cells identified in experiment [8] came to 0%.

The values are drawn from patent publication US20250231186A1.
